# Data published in publication PMC8342540, “The middle lipin domain adopts a membrane-binding dimeric protein fold” (Nature Communications, 2021).
# How the values were obtained:
# [1] = molecular target: the molecule itself; assay: crystal structure; mouse lipin 2 M-Lip^xtal, 0.2 M calcium acetate, 20% PEG 3350, hanging drop, RT
# [2] = molecular target: the molecule itself; assay: SEC; Superdex 200 10/300 in 20 mM Tris pH 8.0, 150 mM NaCl, 10 mM 2-mercaptoethanol; elution compared with MW standards
# [3] = molecular target: the molecule itself; assay: SEC-MALS; 1.6 mg injected onto Superdex 200 Increase 10/300, flow 0.35 ml/min
protein,measurement,setting,value
"mouse lipin 2 M-Lip^xtal domain (residues 459–549) (domain or fragment, UniProt Q99PI5 459-549, looked up, mouse lipin 2, M-Lip^xtal domain, residues 459–549; Cloned into pET28b with NdeI and NotI; the purification section names pET28a; source: E. coli BL21 (DE3) RIPL, purified (Ni-NTA, SEC)) SAMDLPDVTLSLCGGLSENGEISKEKFMEHIITYHEFAENPGLIDNPNLVIRIYNRYYNWALAAPMILSLQVFQKSLPKATVESWVKDKMP",binding result,[1],binds
"full-length mouse lipin 1 alpha (residues 1–891), from Sf9 cells (natural protein, UniProt Q91ZP3-2 1-891, looked up, mouse lipin 1 alpha, full length, residues 1–891 (891 residues printed); Vector YM-Bac3, a modified pFastBac Htb; also called wild-type lipin 1; recombinant lipin 1; source: Sf9, baculovirus, purified (Ni-NTA, Streptactin-XT, SEC)) MNYVGQLAGQVFVTVKELYKGLNPATLSGCIDIIVIRQPNGSLQCSPFHVRFGKMGVLRSREKVVDIEINGESVDLHMKLGDNGEAFFVQETDNDQEIIPMYLATSPILSEGAARMESQLKRNSVDRIRCLDPTTAAQGLPPSDTPSTGSLGKKRRKRRRKAQLDNLKRDDNVNSSEDEDMFPIEMSSDEDTAPMDGSRTLPNDVPPFQDDIPKENFPSISTHPQSASYPSSDREWSPSPSPSGSRPSTPKSDSELVSKSADRLTPKNNLEMLWLWGELPQAAKSSSPHKMKESSPLGSRKTPDKMNFQAIHSESSDTFSDQSPTMARGLLIHQSKAQTEMQFVNEEDLESLGAAAPPSPVAEELKAPYPNTAQSSSKTDSPSRKKDKRSRHLGADGVYLDDLTDMDPEVAALYFPKNGDPGGLPKQASDNGARSANQSPQSVGGSGIDSGVESTSDSLRDLPSIAISLCGGLSDHREITKDAFLEQAVSYQQFADNPAIIDDPNLVVKVGNKYYNWTTAAPLLLAMQAFQKPLPKATVESIMRDKMPKKGGRWWFSWRGRNATIKEESKPEQCLTGKGHNTGEQPAQLGLATRIKHESSSSDEEHAAAKPSGSSHLSLLSNVSYKKTLRLTSEQLKSLKLKNGPNDVVFSVTTQYQGTCRCEGTIYLWNWDDKVIISDIDGTITRSDTLGHILPTLGKDWTHQGIAKLYHKVSQNGYKFLYCSARAIGMADMTRGYLHWVNERGTVLPQGPLLLSPSSLFSALHREVIEKKPEKFKVQCLTDIKNLFFPNTEPFYAAFGNRPADVYSYKQVGVSLNRIFTVNPKGELVQEHAKTNISSYVRLCEVVDHVFPLLKRSHSCDFPCSDTFSNFTFWREPLPPFENQDMHSASA",binding result,[2],binds
"mouse lipin 1 M-Lip^xtal domain (residues 458–548), as used in SEC-MALS (domain or fragment, UniProt Q91ZP3-2 458-548, looked up, mouse lipin 1, M-Lip^xtal domain, residues 458–548; numbers count on: mouse lipin 1 alpha (891 residues); The stated dimer mass of 26 kDa (13 kDa a chain) would fit the 91 residues plus a vector-encoded His tag (surmise); source: E. coli BL21 (DE3) RIPL, purified (Ni-NTA, SEC)) SLRDLPSIAISLCGGLSDHREITKDAFLEQAVSYQQFADNPAIIDDPNLVVKVGNKYYNWTTAAPLLLAMQAFQKPLPKATVESIMRDKMP",stoichiometry N,[3],2
